# Experiment: soluble on expression in E. coli; label from the status in PepcDB or PDB records
row,Sequence,soluble on expression in E. coli
1,MSLTNSSKSFTKFMAASAVFTMGFLSVPTAGAEQTNQIANKPQAIQWHTNLTNERFTTIAHRGASGYAPEHTFQAYDKSHNELKASYIEIDLQRTKDGHLVAMHDETVNRTTNGHGKVEDYTLDELKQLDAGSWFNKKYPKYARASYKNAKVPTLDEILERYGPNANYYIETKSPDVYPGMEEQLLASLKKHHLLNNNKLKNGHVMIQSFSDESLKKIHRQNKHVPLVKLVDKGELQQFNDQRLKEIRSYAIGLGPDYTDLTEQNTHHLKDLGFIVHPYTVNEKADMLRLNKYGVDGVFTNFADKYKEVIKEGHHHHHH,soluble
2,MSLTNVVAYIRVSTKSQGDSGLGLEAQRDYIQRAAQANDWNVVGEFVDVVSGKLALEDRPEGAKALTMCKQHNAQLLVAKLDRLSRSVLHIAQLMEQVDFKVATMPQADKFQLHLFAALAQQEREFIATRTKEALASLQRRADAGDAVAQQKVANRAEAQAKGRAVADITAANNIRMSKINTYQTNIEPHLKSCLHDKISEGHHHHHH,soluble
3,MSLTPYNVARKRGELKYLLLTESQFDGGMMLRFVLRSETKLTQLRAALPWLRAQLPQLRVITANIQPVHMAIMEGETEIYLTDQQALAERFNDVPLWIRPQSFFQTNPTVASRLYATARDWVGQLPVRHMWDLFCGVGGFGLHCATPQMQLTGIEIAPEAIACAKQSAAELGLTRLHFQALDSTQFATAQGETPDLVLVNPPRRGIGKPLCDYLAQMAPRFIIYSSCNAQTMAQDIRHLPNYRIQRVQLFDMFPHTAHYEVLALLRRSEGHHHHHH,not soluble
4,MSLTQVRQTDSGDSLETARPADLLVLLDSLRQREATLNAEVIDLQNTLNALQASGNTDQAALESAQARLAALSILVGAVGATGPGVMITIDDPGPGVAPEVMIDVINELRAAGAEAIQINDAHRSVRVGVDTWVVGVPGSLTVDTKVLSPPYSILAIGDPPTLAAAMNIPGGAQDGVKRVGGRMVVQQADRVDVTALRQPKQHQYAQPVKEGHHHHHH,soluble
5,MSLTRKKEDPGHSGRADRAARLSKASTHHAQHRQQPQRTRHERPRHAGHVAGKLYQLEVSEALISSVTDAVLDNVHAWQSRPLAAQRAENQRLIPD,soluble
6,MSLTRPPALSDVPDAAALPAVTAVEAMHCRIPFPSPLQLGKVHMTHRDYVLVRLLLADGGTGHAIGFERGMPLLDLVTRVAPFYVGRSPAMRAAARRAAEAATPPARAVLMRGISLLDIAMWDALARNKGLPLWALLGGARRRVPVMPVVGYGASAPAVAEQCRDLAGRGFRTVKVMIDGSDLAADAALLDAVRKALPDEVAFGIDAHWSWTTIADAMPTCRRAEELGAIFIEDPFLPQQWRTIAELQTQLRVPLAVGEDVIDRYGFRDLAEAARILRVDASVSGGVTGAIEALHLATIMDREVIPHVFPALHGQLAAAFPAARCVEMILPEVGADPVDRLFAEEARIEGGDLLVSETPGAAIAFDWDKARDFALRSERVGEGHHHHHH,soluble
7,MSLTSSQKDIINDILSAMQCYPENEAFIIDDKHYTYAQLGEITASITHSLSEIKDEKIGIVAENRIETYAAILAVLAGGKTYVILHPAYPEERNLKIAALAGLRTLLCTSDTDRSAFGTGHFRIIDTDRLPGKAQSEQQSHSSNEERNAYIIFTSGSTGEPKGVPITRANLNAFYRAYSLLDWNLDEHDRMLQMFELTFDVSVVSLLYPLTLGAAVYTVGHQDVKHFKVFELLEKYQLTFATVTPSLLQLLSPYFDEINLPSLKYLGVSAEASQTELLERFRKSVPNATFINLYGPTEATIYCTCYRIPASDKCKHYNGMVAIGKPFPGIRAIIADEEGNELPQGETGELWVSGRQVMKGYLDDPEKSALVLIHRPDGQIYYRTGDLCILDSDGDIIYCGRKDYQVKIQGFRIELSEIEYTAQSFFKTPCSVAAVPLLCDGICNELHLAVETTECTQSALIEYLKEKLPKYMLPKQIHCISQFPVTNSNKTDRKKIAELIKEGHHHHHH,soluble

# Source: the DeepSol protein solubility set
